# Source: article PMC314469, “Protein Interaction Networks by Proteome Peptide Scanning” (PLoS Biology, 2004)
# T1: Myo5 SH3 (MYO5_YEAST), Q04439
# T1 chain: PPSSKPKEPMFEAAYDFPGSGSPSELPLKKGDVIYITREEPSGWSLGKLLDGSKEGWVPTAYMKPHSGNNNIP
# T2: Rvs167 SH3 (RV167_YEAST), P39743
# T2 chain: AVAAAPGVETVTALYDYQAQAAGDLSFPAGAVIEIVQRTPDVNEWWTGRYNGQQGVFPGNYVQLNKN
# T3: Boi2 SH3 (BOI2_YEAST), P39969
# T3 chain: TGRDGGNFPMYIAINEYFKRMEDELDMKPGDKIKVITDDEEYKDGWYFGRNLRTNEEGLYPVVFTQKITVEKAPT
# T4: Boi1 SH3 (BOI1_YEAST), P38041
# T4 chain: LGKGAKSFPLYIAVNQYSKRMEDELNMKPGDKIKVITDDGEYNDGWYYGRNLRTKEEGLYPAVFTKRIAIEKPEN
# T5: Yfr024 SH3 (LSB3_YEAST), P43603
# T5 chain: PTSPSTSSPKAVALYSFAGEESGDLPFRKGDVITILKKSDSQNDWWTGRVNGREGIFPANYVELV
# T6: Yhr016c SH3 (YSC84_YEAST), P32793
# T6 chain: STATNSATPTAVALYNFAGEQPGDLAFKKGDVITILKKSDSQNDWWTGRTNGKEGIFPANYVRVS
# Biological target: T1, Myo5 SH3 (MYO5_YEAST), Q04439
# Assay: SPOT array
row,"normalised SPOT signal, Boehringer light units (BLU); mean over the file's lines of this peptide",Binder
1,378,FSTKKSKPIRPFVF [YMR259C 335-348]
2,337,FYDFRSLPKVPTTQ [YPR151C 52-65]
3,1580,FVSPRRAPKPPSYP [YER114C 436-449]
4,148,FSKKKEAPEDPKNL [YNL231C 5-18]
5,1410,FRPHRLAPSAPATK [YOL113W 305-318]
6,20200,GDHPKGPPPPPPPP [YPL277C 154-167]
7,87.7,FYKEKAKPLEPILD [YGL195W 1152-1165]
8,40100,GDHPKGPPPPPPPD [YOR389W 154-167]
9,126,GDEERFLPNRPHYE [YPR117W 1311-1324]
10,860,FVFFKSLPDLPKPQ [YML104C 41-54]
11,235,FQYTKGRPLAPKGA [YGL009C 253-266]

# Biological target: T2, Rvs167 SH3 (RV167_YEAST), P39743
# Assay: SPOT array
row,"normalised SPOT signal, Boehringer light units (BLU); mean over the file's lines of this peptide",Binder
1,228,FSTKKSKPIRPFVF [YMR259C 335-348]
2,263,FYDFRSLPKVPTTQ [YPR151C 52-65]
3,42.1,FVSPRRAPKPPSYP [YER114C 436-449]
4,66.9,FSKKKEAPEDPKNL [YNL231C 5-18]
5,228,FRPHRLAPSAPATK [YOL113W 305-318]
6,10.9,GDHPKGPPPPPPPP [YPL277C 154-167]
7,25.4,FYKEKAKPLEPILD [YGL195W 1152-1165]
8,54.8,GDHPKGPPPPPPPD [YOR389W 154-167]
9,10.7,GDEERFLPNRPHYE [YPR117W 1311-1324]
10,179,FVFFKSLPDLPKPQ [YML104C 41-54]
11,22.3,FQYTKGRPLAPKGA [YGL009C 253-266]

# Biological target: T3, Boi2 SH3 (BOI2_YEAST), P39969
# Assay: SPOT array
row,"normalised SPOT signal, Boehringer light units (BLU); mean over the file's lines of this peptide",Binder
1,30.8,FSTKKSKPIRPFVF [YMR259C 335-348]
2,74.9,FYDFRSLPKVPTTQ [YPR151C 52-65]
3,13.1,FVSPRRAPKPPSYP [YER114C 436-449]
4,18.3,FSKKKEAPEDPKNL [YNL231C 5-18]
5,26,FRPHRLAPSAPATK [YOL113W 305-318]
6,0.3,GDHPKGPPPPPPPP [YPL277C 154-167]
7,27.8,FYKEKAKPLEPILD [YGL195W 1152-1165]
8,1.7,GDHPKGPPPPPPPD [YOR389W 154-167]
9,34.4,GDEERFLPNRPHYE [YPR117W 1311-1324]
10,8.6,FVFFKSLPDLPKPQ [YML104C 41-54]
11,14.9,FQYTKGRPLAPKGA [YGL009C 253-266]

# Biological target: Sho1 SH3 (SHO1_YEAST), P40073
# Assay: SPOT array
# Sequence of Sho1 SH3 (SHO1_YEAST), P40073 (P40073 295-366): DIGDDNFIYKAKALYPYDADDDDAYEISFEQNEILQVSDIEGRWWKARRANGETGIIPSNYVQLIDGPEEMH
row,"normalised SPOT signal, Boehringer light units (BLU); mean over the file's lines of this peptide",Binder
1,182,FSTKKSKPIRPFVF [YMR259C 335-348]
2,30200,FYDFRSLPKVPTTQ [YPR151C 52-65]
3,96.2,FVSPRRAPKPPSYP [YER114C 436-449]
4,42.3,FSKKKEAPEDPKNL [YNL231C 5-18]
5,44.7,FRPHRLAPSAPATK [YOL113W 305-318]
6,6.3,GDHPKGPPPPPPPP [YPL277C 154-167]
7,62.7,FYKEKAKPLEPILD [YGL195W 1152-1165]
8,28.1,GDHPKGPPPPPPPD [YOR389W 154-167]
9,37.9,GDEERFLPNRPHYE [YPR117W 1311-1324]
10,35800,FVFFKSLPDLPKPQ [YML104C 41-54]
11,66.9,FQYTKGRPLAPKGA [YGL009C 253-266]

# Biological target: T4, Boi1 SH3 (BOI1_YEAST), P38041
# Assay: SPOT array
row,"normalised SPOT signal, Boehringer light units (BLU); mean over the file's lines of this peptide",Binder
1,267,FSTKKSKPIRPFVF [YMR259C 335-348]
2,4350,FYDFRSLPKVPTTQ [YPR151C 52-65]
3,4960,FVSPRRAPKPPSYP [YER114C 436-449]
4,56.7,FSKKKEAPEDPKNL [YNL231C 5-18]
5,9160,FRPHRLAPSAPATK [YOL113W 305-318]
6,70,GDHPKGPPPPPPPP [YPL277C 154-167]
7,80.5,FYKEKAKPLEPILD [YGL195W 1152-1165]
8,30.8,GDHPKGPPPPPPPD [YOR389W 154-167]
9,54.3,GDEERFLPNRPHYE [YPR117W 1311-1324]
10,129,FVFFKSLPDLPKPQ [YML104C 41-54]
11,59.6,FQYTKGRPLAPKGA [YGL009C 253-266]

# Biological target: T5, Yfr024 SH3 (LSB3_YEAST), P43603
# Assay: SPOT array
row,"normalised SPOT signal, Boehringer light units (BLU); mean over the file's lines of this peptide",Binder
1,864,FSTKKSKPIRPFVF [YMR259C 335-348]
2,3030,FYDFRSLPKVPTTQ [YPR151C 52-65]
3,826,FVSPRRAPKPPSYP [YER114C 436-449]
4,13.4,FSKKKEAPEDPKNL [YNL231C 5-18]
5,1010,FRPHRLAPSAPATK [YOL113W 305-318]
6,11.5,GDHPKGPPPPPPPP [YPL277C 154-167]
7,0,FYKEKAKPLEPILD [YGL195W 1152-1165]
8,0,GDHPKGPPPPPPPD [YOR389W 154-167]
9,1300,GDEERFLPNRPHYE [YPR117W 1311-1324]
10,448,FVFFKSLPDLPKPQ [YML104C 41-54]
11,190,FQYTKGRPLAPKGA [YGL009C 253-266]

# Biological target: T6, Yhr016c SH3 (YSC84_YEAST), P32793
# Assay: SPOT array
row,"normalised SPOT signal, Boehringer light units (BLU); mean over the file's lines of this peptide",Binder
1,66.2,FSTKKSKPIRPFVF [YMR259C 335-348]
2,496,FYDFRSLPKVPTTQ [YPR151C 52-65]
3,70.9,FVSPRRAPKPPSYP [YER114C 436-449]
4,21.7,FSKKKEAPEDPKNL [YNL231C 5-18]
5,109,FRPHRLAPSAPATK [YOL113W 305-318]
6,23.3,GDHPKGPPPPPPPP [YPL277C 154-167]
7,57,FYKEKAKPLEPILD [YGL195W 1152-1165]
8,3.6,GDHPKGPPPPPPPD [YOR389W 154-167]
9,653,GDEERFLPNRPHYE [YPR117W 1311-1324]
10,80.2,FVFFKSLPDLPKPQ [YML104C 41-54]
11,42.6,FQYTKGRPLAPKGA [YGL009C 253-266]
